Literature values in publication PMC4540119.
Read-outs that look alike come from different tables or passages of the source.

Legend:
[1] = target: integrin α6β1 (Homo sapiens) (UniProt P23229)
[2] = target: integrin α6β1 (Homo sapiens) (UniProt P23229); remark: listed apart in the source

UniProt P23229, sequence (P23229 24-1050, chain 1 of 2): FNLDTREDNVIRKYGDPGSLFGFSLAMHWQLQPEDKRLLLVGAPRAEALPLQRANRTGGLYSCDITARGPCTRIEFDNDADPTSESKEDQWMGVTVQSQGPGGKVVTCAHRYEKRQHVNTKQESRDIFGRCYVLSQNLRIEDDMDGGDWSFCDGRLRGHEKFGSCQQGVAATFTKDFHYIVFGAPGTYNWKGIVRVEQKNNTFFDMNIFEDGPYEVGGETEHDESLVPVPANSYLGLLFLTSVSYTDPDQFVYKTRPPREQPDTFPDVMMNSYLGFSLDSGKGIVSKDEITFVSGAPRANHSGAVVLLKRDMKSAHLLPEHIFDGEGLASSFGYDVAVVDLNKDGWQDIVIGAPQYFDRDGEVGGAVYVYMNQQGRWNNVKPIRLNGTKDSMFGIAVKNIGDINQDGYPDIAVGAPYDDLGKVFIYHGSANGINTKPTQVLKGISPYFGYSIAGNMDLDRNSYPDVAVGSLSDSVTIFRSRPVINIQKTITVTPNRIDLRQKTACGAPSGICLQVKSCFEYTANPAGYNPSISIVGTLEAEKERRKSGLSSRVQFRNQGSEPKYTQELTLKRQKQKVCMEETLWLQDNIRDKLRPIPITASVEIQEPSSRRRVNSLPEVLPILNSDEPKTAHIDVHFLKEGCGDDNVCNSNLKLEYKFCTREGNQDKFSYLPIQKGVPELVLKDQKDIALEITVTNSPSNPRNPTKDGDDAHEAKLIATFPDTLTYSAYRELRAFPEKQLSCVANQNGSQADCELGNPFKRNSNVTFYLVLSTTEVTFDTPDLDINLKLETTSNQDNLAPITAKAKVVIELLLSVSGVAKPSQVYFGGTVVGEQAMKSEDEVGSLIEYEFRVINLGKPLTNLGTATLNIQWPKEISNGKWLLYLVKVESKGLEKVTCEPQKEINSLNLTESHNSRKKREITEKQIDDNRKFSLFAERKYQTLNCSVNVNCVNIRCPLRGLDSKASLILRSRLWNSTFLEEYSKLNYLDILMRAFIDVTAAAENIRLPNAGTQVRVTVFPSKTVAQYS
UniProt P23229, sequence (P05556 21-728, chain 2 of 2, further chain): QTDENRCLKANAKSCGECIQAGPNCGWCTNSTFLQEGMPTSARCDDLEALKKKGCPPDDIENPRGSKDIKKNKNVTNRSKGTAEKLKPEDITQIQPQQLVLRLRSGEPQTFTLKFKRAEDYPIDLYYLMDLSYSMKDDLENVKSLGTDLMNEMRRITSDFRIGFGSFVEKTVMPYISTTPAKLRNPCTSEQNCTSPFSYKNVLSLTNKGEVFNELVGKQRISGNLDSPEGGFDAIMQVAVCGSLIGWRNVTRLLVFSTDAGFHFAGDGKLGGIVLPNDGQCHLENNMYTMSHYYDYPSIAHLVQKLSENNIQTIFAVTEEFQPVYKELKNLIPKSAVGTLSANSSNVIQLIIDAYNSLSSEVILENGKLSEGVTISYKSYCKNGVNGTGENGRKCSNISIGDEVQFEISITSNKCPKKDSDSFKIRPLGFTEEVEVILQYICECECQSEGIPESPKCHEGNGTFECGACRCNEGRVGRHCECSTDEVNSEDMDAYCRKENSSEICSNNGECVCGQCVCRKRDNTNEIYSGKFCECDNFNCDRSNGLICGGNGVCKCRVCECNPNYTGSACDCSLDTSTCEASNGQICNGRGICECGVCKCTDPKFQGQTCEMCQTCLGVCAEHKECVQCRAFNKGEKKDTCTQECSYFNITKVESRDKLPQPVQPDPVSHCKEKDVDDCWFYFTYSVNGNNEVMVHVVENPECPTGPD

Substance | Kd [1] [nM] | Kd [2] [nM]
laminin-111 (from UniProt P25391) | 9.5 | –
laminin-521 (from UniProt O15230) | – | 0.72
